Consider one substance from paper doi:10.1101/2022.11.03.515015.

What all share (settings): remark: other sources report otherwise
In assay [1] the target is full-length human UBR5 (construct for single-particle analysis: 10xHis, 3C site, UBR5, double strep tag) (human) (UniProt O95071). In words: mass photometry.
Assay [2] shares this target. In words: cryo-EM structure.
For assay [3] the target is unchanged. Description: mass photometry. The source holds these as a separate data set.

“And” between values parts separate entries of the source, which are not always exact repeats. Equal values may be shown once.

As to “full-length human UBR5 (construct for single-particle analysis: 10xHis, 3C site, UBR5, double strep tag), O95071 1-2799”, the stoichiometry N – broadly, a count of units in the complex or per binding partner – in assay [1] was 2; in assay [2], 4 and 2; in assay [3] it was 4.
